Data: patent publication EP2002021B1
Values belong to the substance of their own block, whether it stands above or below them.

How the values were obtained:
Assay in all cases: cell-based or functional assay
[1] = molecular target: IGF1R-TEV-NIa-Pro cleavage (Leu)-tTA (human) (UniProt P08069)
[2] = molecular target: EGFR-TEV-NIa-Pro cleavage (Leu)-tTA (human) (UniProt P00533)
[3] = molecular target: CCR5-tTA fusion construct containing the low efficiency cleavage site (UniProt P51681)
Sequence of UniProt P51681 (P51681 whole entry, form in doubt, the tested form may be a part): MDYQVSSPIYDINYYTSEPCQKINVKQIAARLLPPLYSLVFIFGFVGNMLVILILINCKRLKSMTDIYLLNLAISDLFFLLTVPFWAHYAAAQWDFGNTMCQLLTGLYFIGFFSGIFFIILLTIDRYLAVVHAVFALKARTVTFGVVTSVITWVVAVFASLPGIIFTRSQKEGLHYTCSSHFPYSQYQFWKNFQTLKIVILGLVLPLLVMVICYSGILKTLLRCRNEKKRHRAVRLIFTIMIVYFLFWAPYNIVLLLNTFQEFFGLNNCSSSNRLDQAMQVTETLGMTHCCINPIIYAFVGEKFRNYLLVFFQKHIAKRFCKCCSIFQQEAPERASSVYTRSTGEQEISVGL

Sequence of UniProt P08069 (P08069 whole entry, form in doubt): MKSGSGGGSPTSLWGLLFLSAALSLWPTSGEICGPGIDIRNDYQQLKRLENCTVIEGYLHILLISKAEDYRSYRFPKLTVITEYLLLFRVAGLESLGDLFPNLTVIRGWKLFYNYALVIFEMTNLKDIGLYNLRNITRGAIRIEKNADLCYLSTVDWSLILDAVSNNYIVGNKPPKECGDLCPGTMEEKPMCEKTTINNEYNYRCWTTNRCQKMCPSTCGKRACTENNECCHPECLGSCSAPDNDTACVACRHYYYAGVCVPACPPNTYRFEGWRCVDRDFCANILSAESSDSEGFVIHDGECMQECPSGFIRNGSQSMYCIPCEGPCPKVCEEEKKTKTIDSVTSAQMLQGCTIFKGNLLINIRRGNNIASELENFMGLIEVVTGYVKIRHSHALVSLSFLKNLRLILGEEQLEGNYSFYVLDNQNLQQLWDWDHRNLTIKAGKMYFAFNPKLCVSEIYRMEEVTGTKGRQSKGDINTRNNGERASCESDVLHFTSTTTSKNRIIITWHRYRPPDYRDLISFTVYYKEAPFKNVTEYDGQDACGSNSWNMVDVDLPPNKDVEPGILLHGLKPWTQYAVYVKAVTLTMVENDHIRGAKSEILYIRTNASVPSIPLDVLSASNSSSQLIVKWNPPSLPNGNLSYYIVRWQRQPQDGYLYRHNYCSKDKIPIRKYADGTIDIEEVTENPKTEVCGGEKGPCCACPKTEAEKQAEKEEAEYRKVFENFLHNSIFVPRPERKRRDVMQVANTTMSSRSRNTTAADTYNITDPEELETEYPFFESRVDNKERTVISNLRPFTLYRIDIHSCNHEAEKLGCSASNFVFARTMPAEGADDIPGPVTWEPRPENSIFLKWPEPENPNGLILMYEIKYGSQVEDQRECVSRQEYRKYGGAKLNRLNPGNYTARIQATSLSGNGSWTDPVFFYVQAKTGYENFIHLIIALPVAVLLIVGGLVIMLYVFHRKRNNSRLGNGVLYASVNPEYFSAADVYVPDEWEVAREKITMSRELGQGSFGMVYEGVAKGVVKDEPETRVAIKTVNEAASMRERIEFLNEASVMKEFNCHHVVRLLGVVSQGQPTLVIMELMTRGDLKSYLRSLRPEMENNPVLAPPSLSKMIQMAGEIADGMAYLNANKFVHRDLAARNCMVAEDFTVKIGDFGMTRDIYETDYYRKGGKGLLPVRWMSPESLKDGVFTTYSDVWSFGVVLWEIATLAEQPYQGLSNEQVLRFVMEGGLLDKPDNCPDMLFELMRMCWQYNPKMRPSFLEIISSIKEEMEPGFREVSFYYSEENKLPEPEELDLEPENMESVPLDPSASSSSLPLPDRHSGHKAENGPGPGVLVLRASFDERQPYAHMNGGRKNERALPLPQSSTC

Substance: SHC1-TEV (from UniProt P29353 1-238)
- fold increase of luciferase reporter gene activity, 1 µM IGF-1 [1]: 90 fold

- fold increase of luciferase reporter gene activity, 100 ng/ml TGF-alpha [2]: 18.3 fold
Substance: human Transforming Growth Factor - Alpha (from UniProt P01135 40-89) (ligand)

- fold induction of reporter gene expression over the background, 1 µg/ml RANTES, clone 34 cells [3]: 40 fold
Substance: Regulated on Activation, Normal T-Cell Expressed and Secreted (RANTES) (from UniProt P13501 24-91) (ligand)

Substance: PLC Gamma1-TEV
- fold increase of luciferase reporter gene activity, 2.5 ng/ml EGF [2]: 12.3 fold
- fold increase of luciferase reporter gene activity, 100 ng/ml TGF-alpha [2]: 18.3 fold
